Assays:
[1] = biological target: T1, human serum albumin (human, UniProt P02768 25-609); assay: SPR, Biacore T100; sample captured by anti-human CH1 antibody, HSA as analyte
T1 construct: Bought protein; also called HSA
Protocol: (§1) Covalent immobilisation of the capture antibody was achieved by standard amine coupling chemistry.
(§2) After each cycle, the capture surface was regenerated with 2×1 min injections of 40 mM HCl followed by 30 s of 5 mM NaOH. The flow rates used were 10 μl/min for capture, 30 μl/min for association and dissociation phases, and 10 μl/min for regeneration.
A blank flow-cell was used for reference subtraction and buffer-blank injections were included to subtract instrument noise and drift.

[2] = biological target: T2, IL-6 (UniProt P05231 30-212, limits assumed); assay: SPR, Biacore T100; sample captured by anti-human CH1 antibody, IL-6 as analyte
[3] = biological target: T1, human serum albumin; assay: SPR, Biacore T100; sample captured by anti-human CH1 antibody, HSA as analyte, 1:1 fit
Protocol: as §1, §2
Kinetic parameters were determined by simultaneous global-fitting of the resulting sensorgrams to a standard 1:1 binding model using Biacore T100 Evaluation Software v2.0.1.

[4] = biological target: T2, IL-6; assay: SPR, Biacore T100; sample captured by anti-human CH1 antibody, IL-6 as analyte; kinetics not given

- Stoichiometry [1]: 0.39
- Stoichiometry [2]: 0.06
- Kd [3]: 11.3 nM
- koff [3]: 0.000379 s⁻¹
- kon [3]: 33400 M⁻¹ s⁻¹
- RU of binding [4]: 1 RU
B1: A26Fab 645Fv 1G4S 1189Fv (other)
heavy: EVQLVESGGGLVQPGGSLRLSCAASGFTFTNYGIHWIRQAPGKGLEWVASISPSGGLTYYRDSVKGRFTISRDDAKNSPYLQMNSLRAEDTAVYYCATGGEGIFDYWGQGTLVTVSSASTKGPSVFPLAPSSKSTSGGTAALGCLVKDYFPEPVTVSWNSGALTSGVHTFPAVLQSSGLYSLSSVVTVPSSSLGTQTYICNVNHKPSNTKVDKKVEPKSCSGGGGSGGGGSGGGGSEVQLLESGGGLVQPGGSLRLSCAVSGIDLSNYAINWVRQAPGKCLEWIGIIWASGTTFYATWAKGRFTISRDSTTVYLQMNSLRAEDTAVYYCARTVPGYSTAPYFDLWGQGTLVTVSSGGGGSEVQLVESGGGLVQPGGSLRLSCAASGFTFNDYDMAWVRQAPGKCLEWVASITPSGGGTYYRDSVKGRFTISRDNAKNSLYLQMNSLRAEDTAVYYCARHGYTLDYFEYWGQGTMVTVSS
light: DIQMTQSPSSLSASVGDRVTITCRATQSIYNALAWYQQKPGKAPKLLIYNANTLHTGVPSRFSASGSGTDSTLTISSLQPEDFATYYCQQYYDYPLTFGGGTKVEIKRTVAAPSVFIFPPSDEQLKSGTASVVCLLNNFYPREAKVQWKVDNALQSGNSQESVTEQDSKDSTYSLSSTLTLSKADYEKHKVYACEVTHQGLSSPVTKSFNRGECSGGGGSGGGGSGGGGSDIVMTQSPSSVSASVGDRVTITCQSSPSVWSNFLSWYQQKPGKAPKLLIYEASKLTSGVPSRFKGSGSGTDFTLTISSLQPEDFATYYCGGGYSSISDTTFGCGTKVEIKGGGGSDIQMTQSPSSLSASVGDRVTITCLASEGISNDLAWYQQKPGKAPKLLIYDATRLQDGVPSRFSGSGSGTDFTLTISSLQPEDFATYYCQQSYKYPWTFGCGTKLEIK
notes: Trispecific Fab-Fv-Fv (OX40, HSA, IL-6); second linker 1xG4S; HEK293 supernatant; also called A26Fab-645Fv-1189Fv; FabFvFv

Reference: patent publication US20130053549A1 (UCB, published 2013)
